Measured values reported in US20250262210A1 (TRUSTEES OF COLUMBIA UNIVERSITY IN THE CITY OF NEW YORK, published 2025).

Columns and labels:
Experiment in all cases: IP/MS, LZTR1 R810W-FLAG, U87
TRIM16 = TRIM16 (human, UniProt O95361 1-564, limits assumed)
Method in brief: (§1)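 Gel slices were reduced with 5 mM DTT, alkylated with 11 mM IAA and digested overnight at 37° C. with trypsin. Peptides were analysed on an Orbitrap Fusion Tribrid by LC-MS/MS.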

URB1 = URB1 (human, UniProt O60287 1-2271)
Method in brief: as §1

RPAP1 = target: T1, RPAP1 (human, UniProt Q9BWH6 1-1393, limits assumed)
T1 sequence (looked up): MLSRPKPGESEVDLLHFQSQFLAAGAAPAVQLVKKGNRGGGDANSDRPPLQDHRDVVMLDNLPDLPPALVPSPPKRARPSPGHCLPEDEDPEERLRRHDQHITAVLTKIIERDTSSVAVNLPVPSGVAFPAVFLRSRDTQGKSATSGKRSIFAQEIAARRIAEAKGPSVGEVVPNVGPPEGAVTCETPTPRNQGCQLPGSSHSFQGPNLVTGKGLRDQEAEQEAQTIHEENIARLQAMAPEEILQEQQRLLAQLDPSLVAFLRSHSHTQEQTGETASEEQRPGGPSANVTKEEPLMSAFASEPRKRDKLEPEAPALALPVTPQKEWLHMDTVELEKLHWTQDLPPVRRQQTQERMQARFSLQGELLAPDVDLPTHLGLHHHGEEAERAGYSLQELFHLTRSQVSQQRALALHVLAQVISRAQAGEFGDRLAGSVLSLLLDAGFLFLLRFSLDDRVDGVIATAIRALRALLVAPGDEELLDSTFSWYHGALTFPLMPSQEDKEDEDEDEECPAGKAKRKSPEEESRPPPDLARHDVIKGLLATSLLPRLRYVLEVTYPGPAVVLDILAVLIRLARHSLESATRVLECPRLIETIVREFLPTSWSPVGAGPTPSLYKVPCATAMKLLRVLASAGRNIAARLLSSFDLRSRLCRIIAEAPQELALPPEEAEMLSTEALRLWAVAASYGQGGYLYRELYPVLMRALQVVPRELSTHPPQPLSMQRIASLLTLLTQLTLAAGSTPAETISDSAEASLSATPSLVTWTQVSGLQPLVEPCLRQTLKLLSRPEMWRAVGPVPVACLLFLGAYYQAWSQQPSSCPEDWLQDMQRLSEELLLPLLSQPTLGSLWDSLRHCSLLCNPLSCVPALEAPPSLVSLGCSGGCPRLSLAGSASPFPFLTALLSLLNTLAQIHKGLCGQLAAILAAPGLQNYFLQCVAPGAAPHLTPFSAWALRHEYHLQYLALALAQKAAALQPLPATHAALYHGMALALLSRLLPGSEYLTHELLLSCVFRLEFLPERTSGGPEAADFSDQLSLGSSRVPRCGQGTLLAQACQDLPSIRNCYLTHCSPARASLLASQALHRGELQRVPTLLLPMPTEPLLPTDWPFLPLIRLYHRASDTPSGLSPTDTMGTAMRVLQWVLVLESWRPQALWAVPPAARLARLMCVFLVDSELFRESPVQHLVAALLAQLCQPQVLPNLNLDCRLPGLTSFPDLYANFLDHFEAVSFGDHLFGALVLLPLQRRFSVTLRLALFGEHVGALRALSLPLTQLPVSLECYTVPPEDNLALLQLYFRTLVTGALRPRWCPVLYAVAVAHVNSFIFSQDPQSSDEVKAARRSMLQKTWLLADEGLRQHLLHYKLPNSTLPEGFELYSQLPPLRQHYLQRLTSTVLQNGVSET
Method in brief: as §1

BUB1 = BUB1 (human, UniProt O43683 1-1085, limits assumed)
Method in brief: as §1

Measured: binding result

Sequence of BUB1 (O43683 whole entry): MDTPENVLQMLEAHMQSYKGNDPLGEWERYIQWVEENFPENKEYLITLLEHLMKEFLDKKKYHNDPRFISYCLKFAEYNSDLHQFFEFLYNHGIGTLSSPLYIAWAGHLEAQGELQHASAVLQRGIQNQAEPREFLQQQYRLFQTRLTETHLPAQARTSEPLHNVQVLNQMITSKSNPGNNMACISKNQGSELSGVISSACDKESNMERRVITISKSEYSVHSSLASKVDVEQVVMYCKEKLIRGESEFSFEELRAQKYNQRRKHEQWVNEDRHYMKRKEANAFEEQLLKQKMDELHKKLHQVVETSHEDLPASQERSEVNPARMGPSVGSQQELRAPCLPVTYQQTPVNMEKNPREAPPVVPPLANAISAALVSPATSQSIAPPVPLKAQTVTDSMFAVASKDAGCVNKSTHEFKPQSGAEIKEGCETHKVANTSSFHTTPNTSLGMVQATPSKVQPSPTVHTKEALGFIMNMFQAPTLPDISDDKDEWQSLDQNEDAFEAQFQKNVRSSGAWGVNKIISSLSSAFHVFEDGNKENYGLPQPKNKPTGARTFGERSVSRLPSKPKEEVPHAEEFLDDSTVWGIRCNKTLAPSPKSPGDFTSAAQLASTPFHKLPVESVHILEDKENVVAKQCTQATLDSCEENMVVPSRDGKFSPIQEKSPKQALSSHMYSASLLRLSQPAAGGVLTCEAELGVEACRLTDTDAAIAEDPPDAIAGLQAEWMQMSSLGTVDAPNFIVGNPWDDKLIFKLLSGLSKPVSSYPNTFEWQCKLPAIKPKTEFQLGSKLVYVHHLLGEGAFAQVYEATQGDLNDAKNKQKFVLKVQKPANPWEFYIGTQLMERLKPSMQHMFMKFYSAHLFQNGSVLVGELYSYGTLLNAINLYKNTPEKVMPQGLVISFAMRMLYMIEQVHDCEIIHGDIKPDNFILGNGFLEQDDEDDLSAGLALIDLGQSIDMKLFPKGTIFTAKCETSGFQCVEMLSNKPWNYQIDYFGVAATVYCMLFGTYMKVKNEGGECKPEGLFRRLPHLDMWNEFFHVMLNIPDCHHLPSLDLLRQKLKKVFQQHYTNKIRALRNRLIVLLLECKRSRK
Sequence of URB1 (O60287 whole entry): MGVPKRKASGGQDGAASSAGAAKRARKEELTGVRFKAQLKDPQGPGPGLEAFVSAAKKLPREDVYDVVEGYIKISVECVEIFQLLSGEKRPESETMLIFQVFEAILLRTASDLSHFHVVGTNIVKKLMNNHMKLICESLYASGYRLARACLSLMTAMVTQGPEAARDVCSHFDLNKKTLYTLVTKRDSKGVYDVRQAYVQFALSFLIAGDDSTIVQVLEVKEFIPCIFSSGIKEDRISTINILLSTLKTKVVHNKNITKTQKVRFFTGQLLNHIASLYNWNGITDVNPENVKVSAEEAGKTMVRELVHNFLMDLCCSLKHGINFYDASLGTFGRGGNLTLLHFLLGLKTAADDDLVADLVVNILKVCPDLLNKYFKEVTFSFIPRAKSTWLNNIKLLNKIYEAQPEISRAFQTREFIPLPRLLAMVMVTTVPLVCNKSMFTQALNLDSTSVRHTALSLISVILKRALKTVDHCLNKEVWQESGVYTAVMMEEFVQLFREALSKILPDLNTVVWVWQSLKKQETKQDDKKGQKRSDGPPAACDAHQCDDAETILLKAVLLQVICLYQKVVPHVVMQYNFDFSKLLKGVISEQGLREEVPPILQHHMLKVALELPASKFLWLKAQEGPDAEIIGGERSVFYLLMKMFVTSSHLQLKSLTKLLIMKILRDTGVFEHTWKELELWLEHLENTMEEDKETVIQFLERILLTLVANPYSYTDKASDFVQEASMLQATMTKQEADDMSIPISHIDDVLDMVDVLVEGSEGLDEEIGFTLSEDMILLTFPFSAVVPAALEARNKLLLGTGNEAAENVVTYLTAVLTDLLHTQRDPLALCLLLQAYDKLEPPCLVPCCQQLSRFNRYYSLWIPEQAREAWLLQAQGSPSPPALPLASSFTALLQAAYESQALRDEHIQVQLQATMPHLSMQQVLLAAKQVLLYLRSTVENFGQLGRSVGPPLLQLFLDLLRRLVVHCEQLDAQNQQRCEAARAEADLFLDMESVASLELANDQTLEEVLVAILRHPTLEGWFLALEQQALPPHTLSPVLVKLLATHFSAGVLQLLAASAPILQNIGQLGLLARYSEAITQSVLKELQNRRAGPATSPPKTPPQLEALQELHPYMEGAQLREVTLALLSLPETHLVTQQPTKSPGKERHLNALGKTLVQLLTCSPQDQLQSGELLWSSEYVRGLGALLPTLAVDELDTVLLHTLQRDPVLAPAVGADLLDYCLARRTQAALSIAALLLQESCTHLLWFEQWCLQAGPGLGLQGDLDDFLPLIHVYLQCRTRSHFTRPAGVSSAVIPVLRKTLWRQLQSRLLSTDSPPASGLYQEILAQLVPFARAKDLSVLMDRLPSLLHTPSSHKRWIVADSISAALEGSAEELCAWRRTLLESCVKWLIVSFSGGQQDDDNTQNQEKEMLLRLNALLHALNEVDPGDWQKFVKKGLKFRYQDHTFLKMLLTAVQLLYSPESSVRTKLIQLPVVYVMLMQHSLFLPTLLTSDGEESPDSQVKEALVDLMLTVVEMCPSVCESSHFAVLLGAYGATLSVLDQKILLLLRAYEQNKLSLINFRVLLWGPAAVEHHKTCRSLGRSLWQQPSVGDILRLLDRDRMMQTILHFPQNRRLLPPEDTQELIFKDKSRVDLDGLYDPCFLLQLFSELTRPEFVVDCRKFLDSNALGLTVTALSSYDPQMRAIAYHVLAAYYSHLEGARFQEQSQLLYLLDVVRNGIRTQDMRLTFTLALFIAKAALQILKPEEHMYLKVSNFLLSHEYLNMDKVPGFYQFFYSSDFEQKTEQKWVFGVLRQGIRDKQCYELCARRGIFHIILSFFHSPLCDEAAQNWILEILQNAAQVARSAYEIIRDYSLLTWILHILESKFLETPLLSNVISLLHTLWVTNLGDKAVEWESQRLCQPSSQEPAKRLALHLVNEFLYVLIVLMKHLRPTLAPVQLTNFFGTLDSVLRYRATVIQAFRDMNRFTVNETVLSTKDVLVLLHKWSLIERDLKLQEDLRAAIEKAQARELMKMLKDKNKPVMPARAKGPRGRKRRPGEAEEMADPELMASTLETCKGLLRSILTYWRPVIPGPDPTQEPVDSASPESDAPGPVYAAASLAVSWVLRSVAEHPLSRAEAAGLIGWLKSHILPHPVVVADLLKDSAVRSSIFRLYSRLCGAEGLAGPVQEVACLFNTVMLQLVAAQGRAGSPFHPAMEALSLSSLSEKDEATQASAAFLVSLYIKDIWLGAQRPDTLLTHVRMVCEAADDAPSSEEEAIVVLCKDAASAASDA

B1: LZTR1 R810W-FLAG (other, human, UniProt Q8N653 1-840, looked up)
chain: MAGPGSTGGQIGAAALAGGARSKVAPSVDFDHSCSDSVEYLTLNFGPFETVHRWRRLPPCDEFVGARRSKHTVVAYKDAIYVFGGDNGKTMLNDLLRFDVKDCSWCRAFTTGTPPAPRYHHSAVVYGSSMFVFGGYTGDIYSNSNLKNKNDLFEYKFATGQWTEWKIEGRLPVARSAHGATVYSDKLWIFAGYDGNARLNDMWTIGLQDRELTCWEEVAQSGEIPPSCCNFPVAVCRDKMFVFSGQSGAKITNNLFQFEFKDKTWTRIPTEHLLRGSPPPPQRRYGHTMVAFDRHLYVFGGAADNTLPNELHCYDVDFQTWEVVQPSSDSEVGGAEVPERACASEEVPTLTYEERVGFKKSRDVFGLDFGTTSAKQPTQPASELPSGRLFHAAAVISDAMYIFGGTVDNNIRSGEMYRFQFSCYPKCTLHEDYGRLWESRQFCDVEFVLGEKEECVQGHVAIVTARSRWLRRKITQARERLAQKLEQEAAPVPREAPGVAAGGARPPLLHVAIREAEARPFEVLMQFLYTDKIKYPRKGHVEDVLLIMDVYKLALSFQLCRLEQLCRQYIEASVDLQNVLVVCESAARLQLSQLKEHCLNFVVKESHFNQVIMMKEFERLSSPLIVEIVRRKQQPPPRTPLDQPVDIGTSLIQDMKAYLEGAGAEFCDITLLLDGHPRPAHKAILAARSSYFEAMFRSFMPEDGQVNISIGEMVPSRQAFESMLRYIYYGEVNMPPEDSLYLFAAPYYYGFYNNRLQAYCKQNLEMNVTVQNVLQILEAADKTQALDMKRHCLHIIVHQFTKVSKLPTLWSLSQQLLLDIIDSLASHISDKQCAELGADI
notes: Stably expressed in U87 cells by lentivirus; also called LZTR1-FLAG-R810W; LZTR1 RW; not shown: FLAG tag
binds: all assays above
